Data reported in US6114125.

Target: β-casein
Settings: scale: % of the protease activity of natural Hin47 protein

Hin47 Ser-197->alanine analog (enzyme)
Protease activity (digestion of β-casein, SDS-PAGE): < 10
